# Results from patent publication US20260216362A1, “ANTI-BDCA2 ANTIBODY-DRUG CONJUGATE AND USE THEREOF” (DUALITY BIOLOGICS (SHANGHAI) CO., LTD., priority 2022, published 2026).
# T1: Human BDCA2 Fc recombinant protein (human, UniProt Q8WTT0 45-213)
# T1 construct: also called HumanBDCA2 Fc protein; not shown: The N-terminal human IgG1 Fc fragment and the linker
# T1 sequence: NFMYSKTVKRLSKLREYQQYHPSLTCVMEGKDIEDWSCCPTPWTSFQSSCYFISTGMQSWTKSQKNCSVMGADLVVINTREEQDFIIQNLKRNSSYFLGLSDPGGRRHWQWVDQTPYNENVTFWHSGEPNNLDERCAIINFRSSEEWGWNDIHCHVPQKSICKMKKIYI
# T2: human BDCA2 expressed on CHOK1 cells (human, UniProt Q8WTT0 1-213)
# T2 construct: whole, on cells; also called CHOK1-hBDCA2; CHOK1-humanBDCA2
# T2 sequence (looked up): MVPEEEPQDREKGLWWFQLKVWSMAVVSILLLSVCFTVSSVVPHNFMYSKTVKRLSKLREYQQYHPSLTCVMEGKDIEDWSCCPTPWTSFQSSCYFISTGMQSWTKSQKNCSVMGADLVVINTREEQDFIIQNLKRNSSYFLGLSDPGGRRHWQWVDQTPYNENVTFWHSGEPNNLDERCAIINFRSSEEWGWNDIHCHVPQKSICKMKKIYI
# T3: cynomolgus monkey BDCA2 expressed on 293F cells (cynomolgus monkey, UniProt A0A2K5UWP4 1-212)
# T3 construct: whole, on cells
# T3 sequence: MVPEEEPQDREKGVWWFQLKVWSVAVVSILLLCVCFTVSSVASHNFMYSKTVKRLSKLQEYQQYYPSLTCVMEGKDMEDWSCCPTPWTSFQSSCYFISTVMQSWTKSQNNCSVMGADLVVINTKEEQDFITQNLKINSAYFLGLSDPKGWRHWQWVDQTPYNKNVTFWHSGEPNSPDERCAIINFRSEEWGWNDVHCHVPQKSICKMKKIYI
# Biological target: T1, Human BDCA2 Fc recombinant protein
# Experiment: ELISA, coated humanBDCA2 Fc
row,Molecule,EC50
1,mAb019 (antibody) chain 1: EVKLVESGGDLVQPGGSLKLSCAASGFTFSDYYMYWVRQTPEKRLEWVAYISYSGDSTYYPDTVKGRFTISRDNAKNTLFLQMSRLKSEDTAMYYCARHSPSFPYYFDYWGQGTALTVSS chain 2: EIVLTQSPAITAASLGQKVTITCSASSSVSYMHWYQQKSGTSPKPWIYEISKLASGVPARFSGSGSGTSYSLTISSMEAEDAAIYYCQLWNYPLITFGGGTNLEIK,< 0.3 nM
2,mAb001 (antibody) chain 1: QIQLVQSGPELKKPGETVKISCKASGYTFTDFSMHWVKQAPGKGLKWMGWINTETGEPTYADDFKGRFAFSLETSASTAFLQINNLKNDDTTTYFCSRGGDGHPYWYFAVWGAGTTVTVSS chain 2: DIVLTQSPASLAVSLGQRATISCRASQSVSTSSYSYMHWYQQKPGQPPKLLIKYASILESGVPARFSGSGSGTDFTLNIHPVEEEDTATYYCQHSWEIPFTFGSGTKLEIK,< 0.3 nM
3,mAb002 (antibody) chain 1: QIQLVQSGPELKKPGETVKISCRASGYSFTDYSMHWVKQAPGKGLKWVGWINTETGEPTYADDFKGRFALSLETSATSAYLQINNLKNEDTATYFCARGGDGFPYWYFNVWGAGTTVTVSS chain 2: DIVLTQSPTSLAVSLGQRTNISCRASQSVSTSSNSYIHWYQQKPGQPPKLLIKYASNLDSGVPARFSGSGSGTDFTLNIHPVEEEDTSTYYCQHSWEIPFTFGSGTKLEIK,< 0.3 nM
4,mAb005 (antibody) chain 1: QVQLKQSGPGLVQPSQSLSITCTVSGFSLTNYGVHWVRQSPGKGLEWLGVIWSGESTDYDAAFISRLSISKDNSKSQVFFKMNSLQADDSAIYYCARRRSHYYGYVMDYWGQGTSVTVSS chain 2: DIVLTQSPASLAVSLGQRATISCKASQSIDYDGIGYLNWYQHKPGQPPKLLIYAASNLESGIPARFSGSGSGTDFTLNIHPVEEEDAATYYCQQSNEDPPTFGSGTKLEIK,< 0.3 nM
5,mAb016 (antibody) chain 1: QVQLKQSGPGLVQPSQSLSITCTVSGFSLTSYGVHWVRQSPGKGLEWLGVIWSGESTDYDAAFISRLSISKDNSKSQVFFRMNSLQADDSAIYYCARRRSHYYGYVMDYWGQGTSVTVSS chain 2: DIVLTQSPASLAVSLGQRATISCKASQSVDYDGVGYLNWYQHKPGQPPKLLIYAASNLESGIPARFSGSGSGTDFTLNIHPVEEEDAATYYCQQSNEDPPTFGSGTKLEIK,< 0.3 nM
6,mAb020 (antibody) chain 1: DVQLQESGPGLVKPSQSLSLTCSVTGYSIASGYYWNWIRQFPGNKLEWMGYISFDGTYNYNPSLKDRFSITRDTSKNQFFLKLNSVTTEDTATYYCARGVDYPNAIDWWGQGTSVTVSS chain 2: DIVLTQSPASLAVSLGQRATISCRASESVSMHVTHLIHWYQQKPGQPPKLLIYVASNLESGVPARFSGSGSETDFTLNIHPVEEEDAATYFCQQSFEDPWTFGGGTKLEIK,< 0.3 nM
7,mAb022 (antibody) chain 1: DVQLQESGPGLVKPSQSLSLTCSVTGYSITSGYYWNWIRQFPGNKLEWMGYISFDGTYNYNPSLKDRFSITRDTSKNQFFLKLNSVTTEDTATYYCARGVDYPKAMDWWGQGTSVTVSS chain 2: DIVLTQSPASLAVSLGQRATISCRASESVSMHVTHLIHWYQQKPGQPPKLLIYVASNLESGVPARFSGSGSETDFTLNIHPVEEEDAATYFCQQSFEDPWTFGGGTKLEIK,< 0.3 nM
8,mAb024 (antibody) chain 1: EVQLVESGGDLVKPGGSLKLSCAASGFTFSSFGMSWVRQTPDKRLDWVATISSGDSYTYYPDSVKGRFSISRDNAKNTLYLQMSSLKSEDTAVYYCARQIYYDYAYYFDYWGQGTTLTVSS chain 2: DIVLTQSPASLAVSLGQRATISCRASESVSFRSSHLMHWYRQKPGQPPKLLIYAASNLESGVPARFSGSGSETDFTLNIHPVEEEDAAAYFCQQSIEDPPTFGGGTKLEIK,< 0.3 nM
9,mAb021 (antibody) chain 1: DVQLQESGPGLVKPSQSLSLTCSVTGYSITSAYYWNWIRQFPGNKLECMGYITYDGNNYYSPSLKNRISITRDTSKNQFFLNLNSVTTEDTATYFCARGGDYDDGGFAFWGQGTLVTVSA chain 2: DIQMTQSPASLSASVGETVTITCRASGNIHNYLAWYHQKQGKSPQLLVYNAKSLVDGVPSRFSGSGSGTQYSLRINSLQPEDFGSYYCQHFWIVPYTFGGGTKLEII,< 0.3 nM
10,mAb030 (antibody) chain 1: DVQLQESGPGLVKPSQSLSLTCSVTGYSITSAYYWNWIRQFPGNKLECMGYISYDGSNYYNPSLKNRISITRDTSKNQFFLSLNSVTTEDTATYFCVRGGDYDDGGFAYWGQGTLVTVSA chain 2: DIQMTQSPASLSASVGETVTITCRASGNIHNYLAWYQQKQGKSPQLLVYNAKTLADGVPSRFSGSGSETQYSLKINSLQPEDFGNYFCQHFWIIPYTFGGGTKLEIK,< 0.3 nM
11,mAb027 (antibody) chain 1: DVQLQESGPGLVKPSQSLSLTCSVTGYSITSAYYWNWVRQFPGNQLECMGYITYDGSNNYNPSLKNRISITRDTSKNQFFLKLNSVTTEDTATYYCVRGGDYDDGGFAYWGQGTLVTVSA chain 2: DIQMTQSPASLSASVGETVTITCRASGNIHNYLAWYQQKQGKSPQLLVYNAKTLVDGVPSRFSGSGSGTEYSLKINSLQPEDFGIYFCQHFWIIPYTFGGGTKLEIR,< 0.3 nM

# Biological target: T2, human BDCA2 expressed on CHOK1 cells
# Experiment: FACS on CHOK1-hBDCA2 cells, MFI vs concentration; EC50 from the drawn table (fit of a flat control curve)
row,Molecule,EC50
1,hIgG1 (antibody),160000 nM

# Biological target: T3, cynomolgus monkey BDCA2 expressed on …
# Experiment: FACS on 293F-cynoBDCA2 cells
# Protocol: (§1) The cells were collected and resuspended to 2×10\hat{ }6 cells/mL in an FACS buffer (PBS+2% FBS). The resuspended cells were added to a 3799 cell plate at 100 μL/well and centrifuged at 300 g, and the supernatant was discarded. […] The cells were resuspended and incubated at 4° C. for 1 h. The incubated cells were centrifuged at 300 g for 5 min and washed twice with the FACS buffer. 100 μL of Goat anti-Human IgG (H+L) Cross-Adsorbed Secondary Antibody, Alexa Fluor 488 (Sigma, A11013; 1:1000) secondary antibody was added. The cells were incubated at 4° C. for 1 h, washed twice with the FACS buffer, and resuspended in PBS. The fluorescence signals of the antibodies for binding to the cell surface were analyzed using an FACS (BD FACS Canto™ II) instrument, curves were fitted using GraphPad Prism6, and EC50 values of the antibodies or antibody-drug conjugates for binding to the BDCA2 antigen were calculated.
row,Molecule,EC50
1,"Hu033-03 (antibody, human IgG1, kappa, V domains shown, Humanized IgG1; also called Hu033-03(BM3)) VH: EVQLVESGGGLVKPGGSLRLSCAASGFTFSSYGMSWVRQAPGKGLEWVSTISSGDSYTYYPDSVKGRFTISRDNAKNSLYLQMNSLRAEDTAVYYCARQIYYDYAYYFDFWGQGTTVTVSS VL: DIVLTQSPASLAVSPGQRATITCRASESVSFRTSHLMHWYQQKPGQPPKLLIYGASNLESGVPARFSGSGSETDFTLTINPVEAEDTANYFCQQSIEDPPTFGGGTKVEIKR",1.91 nM
2,"Hu033-03-ADC (antibody, human IgG1, kappa, V domains shown, Compound 9 (glucocorticoid linker-payload) coupled to cysteine sulfhydryls after TCEP reduction, positions not given; average 4.01 per antibody by HIC, also called Hu033-03 antibody-drug conjugate; BDCA2-ADC) VH: EVQLVESGGGLVKPGGSLRLSCAASGFTFSSYGMSWVRQAPGKGLEWVSTISSGDSYTYYPDSVKGRFTISRDNAKNSLYLQMNSLRAEDTAVYYCARQIYYDYAYYFDFWGQGTTVTVSS VL: DIVLTQSPASLAVSPGQRATITCRASESVSFRTSHLMHWYQQKPGQPPKLLIYGASNLESGVPARFSGSGSETDFTLTINPVEAEDTANYFCQQSIEDPPTFGGGTKVEIKR",2.36 nM

# Biological target: cynomolgus monkey BDCA2 expressed on 293F cells (cynomolgus monkey)
# Experiment: FACS on 293F-cynoBDCA2 cells, MFI vs concentration; EC50 from the drawn table (fit of a flat control curve)
row,Molecule,EC50
1,hIgG1 (antibody),584 nM

# Biological target: T2, human BDCA2 expressed on CHOK1 cells
# Experiment: FACS on CHOK1-hBDCA2 cells
# Protocol: as §1
row,Molecule,EC50
1,"Hu033-03 (antibody, human IgG1, kappa, V domains shown, Humanized IgG1; also called Hu033-03(BM3)) VH: EVQLVESGGGLVKPGGSLRLSCAASGFTFSSYGMSWVRQAPGKGLEWVSTISSGDSYTYYPDSVKGRFTISRDNAKNSLYLQMNSLRAEDTAVYYCARQIYYDYAYYFDFWGQGTTVTVSS VL: DIVLTQSPASLAVSPGQRATITCRASESVSFRTSHLMHWYQQKPGQPPKLLIYGASNLESGVPARFSGSGSETDFTLTINPVEAEDTANYFCQQSIEDPPTFGGGTKVEIKR",1.23 nM
2,"Hu033-03-ADC (antibody, human IgG1, kappa, V domains shown, Compound 9 (glucocorticoid linker-payload) coupled to cysteine sulfhydryls after TCEP reduction, positions not given; average 4.01 per antibody by HIC, also called Hu033-03 antibody-drug conjugate; BDCA2-ADC) VH: EVQLVESGGGLVKPGGSLRLSCAASGFTFSSYGMSWVRQAPGKGLEWVSTISSGDSYTYYPDSVKGRFTISRDNAKNSLYLQMNSLRAEDTAVYYCARQIYYDYAYYFDFWGQGTTVTVSS VL: DIVLTQSPASLAVSPGQRATITCRASESVSFRTSHLMHWYQQKPGQPPKLLIYGASNLESGVPARFSGSGSETDFTLTINPVEAEDTANYFCQQSIEDPPTFGGGTKVEIKR",1.6 nM
3,"BIIB059 (antibody, human IgG1, kappa, V domains shown, also called positive control antibody BIIB059) VH: DVQLVESGGGLVKPGGSLRLSCAASGFTFSTYTMSWVRQAPGKGLEWVATISPGDSFGYYYPDSVQGRFTISRDNAKNSLYLQMNSLRAEDTAVYYCTRDIYYNYGAWFAYWGQGTLVTVSS VL: DIQLTQSPSSLSASVGDRVTITCKASQSVDYDGDSYMNWYQQKPGKAPKLLIYAASTLESGVPSRFSGSGSGTDFTLTISSLQPEDFATYYCQQANEDPRTFGQGTKVEIKR",3.29 nM
